Common to all, as to settings: chain copies: 2 (homodimer, stated)
Data set [1] deals with T1, NF-kB p65 (RelA) homodimer (UniProt Q04206 Q04206:1-551). The data set is described as follows: competition; inhibits p65/p65 and p50/p50 equally; nonspecific stickiness.
Data set [2] concerns the target T2, NF-kB p50 homodimer (UniProt P19838 P19838:1-433). Described as above.
Data set [3] concerns the target T1, NF-kB p65 (RelA) homodimer. Put plainly: EMSA; p65 homodimer. For orientation: In EMSA bound probe runs differently from free probe, usually more slowly.
Data set [4] deals with T2, NF-kB p50 homodimer. Put plainly: EMSA; stated as sub-nM.

As usually defined, the Kd is the free concentration of one partner at which half of the binding sites on the other are occupied at equilibrium, for simple one-to-one binding.

T1 sequence (Q04206 whole entry, one chain of several): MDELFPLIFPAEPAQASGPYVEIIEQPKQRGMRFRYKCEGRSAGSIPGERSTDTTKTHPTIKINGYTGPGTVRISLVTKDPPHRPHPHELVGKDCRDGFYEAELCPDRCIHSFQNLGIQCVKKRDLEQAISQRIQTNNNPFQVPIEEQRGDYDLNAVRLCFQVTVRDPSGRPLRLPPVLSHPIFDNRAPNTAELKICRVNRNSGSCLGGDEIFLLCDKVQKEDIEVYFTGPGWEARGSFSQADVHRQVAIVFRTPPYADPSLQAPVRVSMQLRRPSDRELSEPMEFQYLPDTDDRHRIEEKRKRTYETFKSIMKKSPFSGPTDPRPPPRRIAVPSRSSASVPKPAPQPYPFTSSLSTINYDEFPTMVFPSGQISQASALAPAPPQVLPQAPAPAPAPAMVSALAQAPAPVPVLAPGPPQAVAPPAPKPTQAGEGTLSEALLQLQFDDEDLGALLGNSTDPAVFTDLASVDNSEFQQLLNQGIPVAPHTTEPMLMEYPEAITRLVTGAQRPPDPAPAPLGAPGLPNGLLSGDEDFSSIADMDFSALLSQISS
T2 sequence (P19838 1-433, one chain of several): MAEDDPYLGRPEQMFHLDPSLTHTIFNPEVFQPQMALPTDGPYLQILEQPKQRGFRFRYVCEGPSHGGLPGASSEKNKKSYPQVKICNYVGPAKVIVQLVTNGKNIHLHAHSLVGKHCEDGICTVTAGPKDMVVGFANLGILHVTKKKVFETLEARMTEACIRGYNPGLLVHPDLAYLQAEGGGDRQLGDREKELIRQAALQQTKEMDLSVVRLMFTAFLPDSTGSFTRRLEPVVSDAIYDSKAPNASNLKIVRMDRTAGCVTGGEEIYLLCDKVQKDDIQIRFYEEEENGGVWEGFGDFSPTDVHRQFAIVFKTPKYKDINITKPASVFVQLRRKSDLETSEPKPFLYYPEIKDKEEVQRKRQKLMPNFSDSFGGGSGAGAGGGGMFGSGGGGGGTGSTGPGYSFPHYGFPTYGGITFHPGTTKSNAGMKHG

B1: CK-1 42-mer full phosphorothioate (dsDNA)
DNA 1: CCAGGAGATTCCACCCAGGAGATTCCACCCAGGAGATTCCAC
DNA 2: GTGGAATCTCCTGGGTGGAATCTCCTGGGTGGAATCTCCTGG
modifications: full PS
Take B1: the binding result (in data set [1]; with NF-kB p50 homodimer [2]) was “binds” in each case.

B2: XBY-6 (dsDNA)
DNA 1: CCAGGAGATTCCAC
DNA 2: GTGGAATCTCCTGG
modifications: 6 phosphorodithioate (S2) linkages: 5'-…2TS2CCAC-3' / 3'-GGS2TCCS2TCS2TAAGGS2TG-5'
As for B2, the results for the Kd (in data set [3]; in the data set with NF-kB p50 homodimer [4]) were 1.4 nM and < 1 nM, respectively.

(Values after patent publication US20060121489 (Board of Regents, The University of Texas System, published 2006).)
